The target of experiment [1] is T1, IFNAR1, endogenous in A375 melanoma cells (human, UniProt P17181 28-557, poly-LacNAc glycosylation added by B3GNT2 (sites not given)).
T1 construct: whole, on cells; In the co-IP it comes from the lysate of A375 cells; also called IFNARI
T1 sequence (looked up): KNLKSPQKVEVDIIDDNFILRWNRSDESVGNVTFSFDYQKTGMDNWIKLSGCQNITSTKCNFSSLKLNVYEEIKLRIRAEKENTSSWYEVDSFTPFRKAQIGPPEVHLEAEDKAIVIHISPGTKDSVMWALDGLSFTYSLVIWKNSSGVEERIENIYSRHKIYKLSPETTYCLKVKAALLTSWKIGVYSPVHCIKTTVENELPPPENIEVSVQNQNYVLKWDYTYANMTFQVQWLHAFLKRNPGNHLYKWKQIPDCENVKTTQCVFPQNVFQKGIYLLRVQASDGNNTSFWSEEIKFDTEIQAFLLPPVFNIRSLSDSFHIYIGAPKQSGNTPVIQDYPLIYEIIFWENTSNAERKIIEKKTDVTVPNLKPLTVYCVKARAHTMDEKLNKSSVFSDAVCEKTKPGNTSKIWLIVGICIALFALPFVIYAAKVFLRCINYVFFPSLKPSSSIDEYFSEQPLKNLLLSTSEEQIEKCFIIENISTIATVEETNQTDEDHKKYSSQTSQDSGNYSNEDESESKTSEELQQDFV
Put plainly: co-IP of FLAG tagged B3GNT2 from A375 lysate, Western blot. On the procedure:
(§1) Cells were plated in 10-cm cell culture dishes and grown to 60-80% confluency. For each condition, two biological replicates were harvested for co-IP. Cells were washed with PBS and 4 mL of lysis buffer (20 mM HEPES, 1% Triton X-100, 150 mM NaCl, 1 mM EDTA, and 10% glycerol) containing protease inhibitor cocktail was added. Cells were scraped and lysate was incubated at 4° C. under rotary agitation for 1 h. Lysate was centrifuged at 14,000×g for 10 min at 4° C. Supernatant was transferred to a new tube and an aliquot was taken as the input. […] For Western blots, 10 μg/mL Chicken Anti-FLAG (Aves labs ET-DY100) and IgY control (R&D Systems AB-101-C) antibodies were biotinylated (Thermo Fisher Scientific 90407) and added to the respective conditions. Lysates with antibodies were incubated at 4° C. under rotary agitation overnight. For each mL of lysate, 50 μL of Pierce Protein A/G Magnetic Beads (Mass spectrometry; Thermo Fisher Scientific 88803) or Pierce Streptavidin Magnetic Beads (Western blot; Thermo Fisher Scientific 88817) was washed twice with lysis buffer. Lysates with antibodies were added to the beads and incubated at 4° C. under rotary agitation for 4 h. Beads were washed with lysis buffer 3 times and resuspended in lysis buffer for storage.
In general terms: Immunoblotting shows a protein as a band on a membrane.

Experiment [2] deals with T2, TNFRSF1A, endogenous in A375 melanoma cells (human, UniProt P19438 30-455, poly-LacNAc glycosylation added by B3GNT2 (sites not given)).
T2 construct: whole, on cells; In the co-IP it comes from the lysate of A375 cells
T2 sequence (looked up): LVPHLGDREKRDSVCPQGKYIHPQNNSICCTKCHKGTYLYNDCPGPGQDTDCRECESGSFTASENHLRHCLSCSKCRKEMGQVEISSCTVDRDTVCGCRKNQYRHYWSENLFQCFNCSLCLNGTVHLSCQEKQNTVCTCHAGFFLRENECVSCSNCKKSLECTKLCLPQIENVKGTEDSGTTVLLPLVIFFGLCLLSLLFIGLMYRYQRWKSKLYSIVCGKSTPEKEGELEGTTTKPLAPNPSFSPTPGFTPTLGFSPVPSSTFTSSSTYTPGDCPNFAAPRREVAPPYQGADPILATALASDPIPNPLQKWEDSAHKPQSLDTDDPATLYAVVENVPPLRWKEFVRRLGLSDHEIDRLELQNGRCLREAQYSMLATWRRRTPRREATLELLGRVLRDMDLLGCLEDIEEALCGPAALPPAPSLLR
The experiment is described as above. On the procedure: as §1

The target in experiment [3] is T3, CD276, endogenous in A375 melanoma cells (human, UniProt Q5ZPR3 29-534, poly-LacNAc glycosylation added by B3GNT2 (sites not given)).
T3 construct: whole, on cells; On fixed A375 cells in flow cytometry; In the co-IP it comes from the lysate of these cells; also called B7H3
T3 sequence (looked up): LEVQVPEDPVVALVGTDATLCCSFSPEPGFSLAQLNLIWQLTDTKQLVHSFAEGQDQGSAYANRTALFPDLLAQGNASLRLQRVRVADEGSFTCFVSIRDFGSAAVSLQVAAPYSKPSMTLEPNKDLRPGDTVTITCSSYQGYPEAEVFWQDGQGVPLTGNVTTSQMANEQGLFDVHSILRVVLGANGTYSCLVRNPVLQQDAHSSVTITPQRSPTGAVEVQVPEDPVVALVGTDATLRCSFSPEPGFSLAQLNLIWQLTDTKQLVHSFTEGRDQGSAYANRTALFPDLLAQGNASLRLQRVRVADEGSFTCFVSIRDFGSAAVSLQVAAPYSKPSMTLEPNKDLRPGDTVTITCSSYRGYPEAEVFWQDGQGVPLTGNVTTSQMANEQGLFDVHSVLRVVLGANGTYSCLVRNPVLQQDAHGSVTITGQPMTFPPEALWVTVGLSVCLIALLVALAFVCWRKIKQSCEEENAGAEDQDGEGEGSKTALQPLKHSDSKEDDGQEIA
The description is as above. On the procedure: as §1

The target of another experiment is T4, PSMD4 (human, UniProt P55036 1-377, limits assumed).
T4 construct: also called NP_001317621.1 (+1)
In words: co-IP with anti-FLAG, mass spectrometry; lysate of cells with C-FLAG B3GNT2. On the procedure: as §1
(§2) Magnetic beads were resuspended in 100 mM Tris pH 7.8, reduced, alkylated and digested with trypsin at 37° ° C. overnight. This solution was subjected to solid phase extraction to concentrate the peptides and remove unwanted reagents followed by injection onto a Shimadzu HPLC with fraction collector. Eight fractions were collected and after concentration were injected on a Waters NanoAcquity HPLC equipped with a self-packed Aeris 3 μm C18 analytical column 0.075 mm by 20 cm, (Phenomenex). Peptides were eluted using standard reverse-phase gradients. The effluent from the column was analyzed using a Thermo Orbitrap Elite mass spectrometer (nanospray configuration) operated in a data dependent manner for 54 minutes. […]

The next experiment has as its target T5, CD70 (human, UniProt P32970 1-193).
T5 construct: also called NP_001243.1
T5 sequence (looked up): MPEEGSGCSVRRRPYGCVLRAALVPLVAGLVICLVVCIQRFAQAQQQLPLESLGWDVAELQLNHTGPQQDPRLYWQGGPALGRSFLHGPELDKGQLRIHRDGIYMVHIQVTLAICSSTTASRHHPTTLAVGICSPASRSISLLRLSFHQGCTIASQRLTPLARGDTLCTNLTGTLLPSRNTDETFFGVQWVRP
The description is as above. The procedure:
as §1, §2

The target of another experiment is T6, MARS (human, UniProt P56192 1-900).
T6 construct: also called NP_004981.2
T6 sequence (looked up): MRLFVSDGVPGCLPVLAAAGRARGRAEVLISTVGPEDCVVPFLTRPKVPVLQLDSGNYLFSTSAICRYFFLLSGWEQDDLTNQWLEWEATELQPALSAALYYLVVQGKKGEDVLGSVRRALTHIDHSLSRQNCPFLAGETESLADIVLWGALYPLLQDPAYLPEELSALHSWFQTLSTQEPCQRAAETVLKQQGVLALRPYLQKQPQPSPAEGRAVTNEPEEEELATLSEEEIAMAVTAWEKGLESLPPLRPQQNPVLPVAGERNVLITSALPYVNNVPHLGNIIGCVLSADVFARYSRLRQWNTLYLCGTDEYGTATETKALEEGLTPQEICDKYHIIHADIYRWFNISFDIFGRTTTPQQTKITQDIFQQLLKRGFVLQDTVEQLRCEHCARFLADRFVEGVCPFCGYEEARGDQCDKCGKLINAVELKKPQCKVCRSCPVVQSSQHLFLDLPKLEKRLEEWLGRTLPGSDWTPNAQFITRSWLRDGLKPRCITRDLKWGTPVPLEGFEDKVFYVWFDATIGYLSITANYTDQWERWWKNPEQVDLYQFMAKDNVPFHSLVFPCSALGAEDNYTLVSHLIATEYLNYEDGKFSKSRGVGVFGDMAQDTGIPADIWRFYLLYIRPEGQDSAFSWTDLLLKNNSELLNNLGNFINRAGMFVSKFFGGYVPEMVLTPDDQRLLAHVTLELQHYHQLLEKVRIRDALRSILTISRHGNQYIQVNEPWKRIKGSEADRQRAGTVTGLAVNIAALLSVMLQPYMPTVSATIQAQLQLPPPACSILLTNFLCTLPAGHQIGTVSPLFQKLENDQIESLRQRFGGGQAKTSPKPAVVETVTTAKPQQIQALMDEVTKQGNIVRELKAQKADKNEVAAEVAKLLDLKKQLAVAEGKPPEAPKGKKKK
The description is as above. On the procedure: as §1, §2

Another experiment addresses T7, S100A9 (UniProt P06702 1-114).
T7 construct: Protein found in the co-IP by mass spectrometry; also called NP_002956.1
T7 sequence (looked up): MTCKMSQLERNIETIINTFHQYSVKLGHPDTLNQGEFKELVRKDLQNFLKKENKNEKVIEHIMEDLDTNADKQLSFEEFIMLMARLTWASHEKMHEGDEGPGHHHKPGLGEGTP
Put plainly: co-IP with anti-FLAG, mass spectrometry; C-FLAG B3GNT2. The procedure: as §1
(§3) Magnetic beads were resuspended in 100 mM Tris pH 7.8, reduced, alkylated and digested with trypsin at 37° ° C. overnight. This solution was subjected to solid phase extraction to concentrate the peptides and remove unwanted reagents followed by injection onto a Shimadzu HPLC with fraction collector. Eight fractions were collected and after concentration were injected on a Waters NanoAcquity HPLC equipped with a self-packed Aeris 3 μm C18 analytical column 0.075 mm by 20 cm, (Phenomenex). Peptides were eluted using standard reverse-phase gradients. The effluent from the column was analyzed using a Thermo Orbitrap Elite mass spectrometer (nanospray configuration) operated in a data dependent manner for 54 minutes. The resulting fragmentation spectra were correlated against the known database using Proteome Discover 1.4 (Thermo Fisher Scientific).

Another experiment concerns the target T8, SPRR2E (UniProt P22531 1-72).
T8 construct: Protein found in the co-IP by mass spectrometry; also called NP_001019380.2
T8 sequence (looked up): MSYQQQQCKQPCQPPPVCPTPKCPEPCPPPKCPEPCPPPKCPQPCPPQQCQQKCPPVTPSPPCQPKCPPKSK
Described as above. On the procedure:
as §1, §3

The next experiment deals with T9, PPIA (UniProt P62937 2-165).
T9 construct: Endogenous protein found in the co-IP by mass spectrometry; also called NP_066953.1
The description is as above. On the procedure:
as §1, §3

The next experiment addresses RPS17 (UniProt P08708 2-135). The experiment is described as above. The procedure:
as §1, §3

In a further experiment the target is T10, TRIM21 (UniProt P19474 1-475).
T10 construct: Endogenous protein found in the co-IP by mass spectrometry; also called NP_003132.2
The description is as above. On the procedure:
as §1, §3

The next experiment addresses T11, AHNAK (UniProt Q09666 1-5890).
T11 construct: Endogenous protein found in the co-IP by mass spectrometry; also called NP_001611.1
The description is as above. On the procedure: as §1, §3

The next experiment addresses T12, ENO1 (UniProt P06733 2-434).
T12 construct: Endogenous protein found in the co-IP by mass spectrometry; also called NP_001419.1
Described as above. On the procedure:
as §1, §3

In the next experiment the target is T13, S100A8 (UniProt P05109 1-93).
T13 construct: Protein found in the co-IP by mass spectrometry; also called NP_002955.2
T13 sequence (looked up): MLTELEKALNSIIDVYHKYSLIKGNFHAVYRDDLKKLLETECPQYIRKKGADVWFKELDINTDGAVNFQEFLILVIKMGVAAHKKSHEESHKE
Described as above. On the procedure: as §1, §3

In another experiment the target is RPS11 (UniProt P62280 2-158). The experiment is described as above. On the procedure:
as §1, §3

T10 sequence (P19474 whole entry): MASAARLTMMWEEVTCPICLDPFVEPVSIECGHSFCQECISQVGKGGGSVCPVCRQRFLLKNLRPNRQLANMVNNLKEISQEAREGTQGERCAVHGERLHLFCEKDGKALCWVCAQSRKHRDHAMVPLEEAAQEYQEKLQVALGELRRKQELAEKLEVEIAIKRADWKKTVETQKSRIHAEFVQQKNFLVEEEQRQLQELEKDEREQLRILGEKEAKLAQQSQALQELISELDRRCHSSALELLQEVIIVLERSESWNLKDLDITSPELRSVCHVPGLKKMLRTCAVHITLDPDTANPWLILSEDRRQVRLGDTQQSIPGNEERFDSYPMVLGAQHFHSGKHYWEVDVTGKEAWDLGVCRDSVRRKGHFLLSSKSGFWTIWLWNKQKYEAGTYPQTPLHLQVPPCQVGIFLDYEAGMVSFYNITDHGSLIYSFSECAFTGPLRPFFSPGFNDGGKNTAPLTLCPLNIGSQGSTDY
T9 sequence (P62937 2-165 limits assumed): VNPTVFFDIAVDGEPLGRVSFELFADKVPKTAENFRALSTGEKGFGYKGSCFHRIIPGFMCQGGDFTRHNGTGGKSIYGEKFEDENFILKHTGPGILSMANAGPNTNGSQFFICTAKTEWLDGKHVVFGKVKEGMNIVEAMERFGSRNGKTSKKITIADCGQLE
T12 sequence (P06733 2-434 limits assumed): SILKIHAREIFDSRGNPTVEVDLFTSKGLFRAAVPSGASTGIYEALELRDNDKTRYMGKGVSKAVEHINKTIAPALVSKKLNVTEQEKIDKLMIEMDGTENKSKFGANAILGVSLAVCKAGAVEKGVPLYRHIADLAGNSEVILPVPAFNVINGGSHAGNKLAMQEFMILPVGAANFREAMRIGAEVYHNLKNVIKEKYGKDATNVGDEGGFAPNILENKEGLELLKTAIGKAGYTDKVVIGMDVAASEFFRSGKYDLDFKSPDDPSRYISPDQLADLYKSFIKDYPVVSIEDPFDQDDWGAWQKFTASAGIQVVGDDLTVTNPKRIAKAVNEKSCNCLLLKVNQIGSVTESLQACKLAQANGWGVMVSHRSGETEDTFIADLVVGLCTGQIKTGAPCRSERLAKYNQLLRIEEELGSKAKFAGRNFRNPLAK
T4 sequence (P55036 whole entry): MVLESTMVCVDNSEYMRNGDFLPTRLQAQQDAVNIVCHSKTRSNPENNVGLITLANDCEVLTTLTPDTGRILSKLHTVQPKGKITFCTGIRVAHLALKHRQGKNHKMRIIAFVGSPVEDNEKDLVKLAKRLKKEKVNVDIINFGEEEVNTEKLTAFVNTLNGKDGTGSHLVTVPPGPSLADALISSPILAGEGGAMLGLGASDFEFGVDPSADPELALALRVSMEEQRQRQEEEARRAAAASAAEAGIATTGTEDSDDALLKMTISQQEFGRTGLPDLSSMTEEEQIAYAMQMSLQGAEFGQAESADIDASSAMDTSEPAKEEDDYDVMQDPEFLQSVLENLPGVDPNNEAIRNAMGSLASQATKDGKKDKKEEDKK

B1: FLAG tagged B3GNT2 (N- or C-terminal FLAG tag) (enzyme, human, UniProt Q9NY97 1-397, looked up)
chain: MSVGRRRIKLLGILMMANVFIYFIMEVSKSSSQEKNGKGEVIIPKEKFWKISTPPEAYWNREQEKLNRQYNPILSMLTNQTGEAGRLSNISHLNYCEPDLRVTSVVTGFNNLPDRFKDFLLYLRCRNYSLLIDQPDKCAKKPFLLLAIKSLTPHFARRQAIRESWGQESNAGNQTVVRVFLLGQTPPEDNHPDLSDMLKFESEKHQDILMWNYRDTFFNLSLKEVLFLRWVSTSCPDTEFVFKGDDDVFVNTHHILNYLNSLSKTKAKDLFIGDVIHNAGPHRDKKLKYYIPEVVYSGLYPPYAGGGGFLYSGHLALRLYHITDQVHLYPIDDVYTGMCLQKLGLVPEKHKGFRTFDIEEKNKNNICSYVDLMLVHSRKPQEMIDIWSQLQSAHLKC
notes: The text speaks of the co-IP of B3GNT2 without separating the N-FLAG and C-FLAG constructs, so both are held as one molecule; also called N-FLAG B3GNT2; C-FLAG B3GNT2; not shown: FLAG tag at the N- or the C-terminus
As for B1, the binding result in experiment [1], in experiment [2] and in experiment [3] was “binds” each time.

B2: C-terminal FLAG tagged B3GNT2 (enzyme, human, UniProt Q9NY97 1-397, looked up)
chain: B1 chain
notes: Bait of the co-IP; pulled down with mouse anti-FLAG (Millipore Sigma F3165) from cell lysate; also called C-FLAG B3GNT2; C-term flag; not shown: C-terminal FLAG tag
As to B2, the “co-IP mass spectrometry count” value with PSMD4 was determined as 0; in the experiment with CD70, 2; with MARS, 0.

B3: C-terminal FLAG tagged B3GNT2 (enzyme, human, UniProt Q9NY97 1-397, looked up)
chain: B1 chain
notes: FLAG-tagged ORF overexpressed in cells; bait of the anti-FLAG co-IP; also called C-FLAG B3GNT2; C-term flag; not shown: FLAG tag at the C-terminus
As for B3, the “co-IP mass spectrometry count” value in the experiment with S100A9 is 9; with SPRR2E it was 0; with PPIA, 0; with RPS17, 10; in the experiment with TRIM21, 0; in the experiment with AHNAK, 2. The “co-IP mass spectrometry count” value amounted to 4 in the experiment with ENO1, 3 in the experiment with S100A8 and 18 with RPS11.

Values taken from patent US20240261333A1 (published 2024).
